Columns and labels:
dGA = dGA (Homo sapiens, UniProt P10636); test: Biacore X100 SPR binding kinetics of anti-tau scAbs (scAb captured via HuCk), analyte dGA; conditions: lead scAbs; for ka: Table 24; for dissociation rate constant (kd): Table 24, dissociation rate
Method: Surface plasmon resonance (SPR) is widely regarded as the gold standard for real time measurement of protein-protein interactions such as antibody binding. All SPR experiments were carried out using a Biacore X100 machine and HBS EP+ running buffer (GE Healthcare). A ‘capture’ method was followed for affinity measurements, where an anti-human constant kappa chain (HuCk) antibody was conjugated to the surface of a CM5 sensor chip using an amine coupling kit and scAb molecules were immobilised via their HuCk domain. Amine coupling is a very common approach for immobilising the ligand to the chip surface. The chip surface has a dextran matrix derivatised with carboxyl groups, which after activation with N-hydroxysuccinimide (NHS) and 1-ethyl-3-(3-dimethylaminopropyl) carbodiimide (EDC), form reactive succinimide esters which allows the covalent capturing of the ligand via any available primary amine groups (e.g. Lysine) on the ligand (in this case anti-HuCk antibody). The capture antibody was diluted 1/100 in 10 mM Sodium acetate buffer pH 5.0 and passed over the activated chip surface for a period of at least 420 s. Final ligand immobilisation levels over 12,000 RU were deemed to be satisfactory.
Following immobilisation, the level of each scAb to be captured was identified using the standard SPR equation with a theoretical RMax of 100 RU. Analyte MW refers to the molecular weight of hT40 or dGA/dGAE molecules, while ligand MW refers to the molecular weight of the scAbs tested. RLis the desired capture level and S refers to the stoichiometric ratio:
The scAb to be tested was added only to flow cell 2 so that flow cell 1 could act as a control to subtract any interaction with the analyte and the chip surface. Both single and multi-cycle runs were utilised using wizards developed in the Biacore X100 control software which are both accepted methods of kinetic analysis (Karlsson, R., et al. Analyzing a kinetic titration series using affinity biosensors (2006) Analytical Biochemistry 349:136-47). The multi-cycle protocol was as follows-Three start-up cycles composed of an initial capture, to the desired level, of the scAb to be tested was performed followed by a 30 s injection of glycine buffer pH 2.0 after each cycle to regenerate the chip surface. The regeneration step removed any captured scAb whilst leaving the capture antibody intact and able to repeat the capture for the next cycle. Following three start-up cycles increasing concentrations (0.15625 nM-100 nM) of the target to be tested were added to the chip surface after the desired scAb capture. The target was added for a 120 s association period and 420 s dissociation period followed by another regeneration, 30 s injection of glycine buffer pH 2.0 in between each cycle.
The single cycle kinetics protocol was similar and utilised the same level of scAb capture. Three start-up cycles were used followed by 5 increasing concentrations of the analyte (6.25 nM-100 nM) for an association period of 120 s followed by a dissociation period of 420 s for each concentration. In single cycle kinetics the regeneration step was performed only after the final analyte concentration was added. Binding responses were analysed in Biacore X100 evaluation software and data fitted to a 1:1 binding model to obtain kinetic and affinity characterisation.

dGAE aggregates = biological target: T1, dGAE aggregates (Homo sapiens, UniProt P10636); test: Sandwich ELISA LoD for SDS Triton X-100 treated dGAE aggregates; format: binding; conditions: label = detection scAb
T1 construct: host or cells: aggregated in house: 100 μM dGAE with DTT, 700 rpm, 37 °C, 24 h
T1 sequence (P10636 614-708): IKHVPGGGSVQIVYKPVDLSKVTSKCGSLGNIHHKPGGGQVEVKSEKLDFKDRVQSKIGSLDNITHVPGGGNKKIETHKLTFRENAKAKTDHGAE
Method: For aggregation, 1000 μL 100 μM dGAE+10 μL 10 mM DTT was added to a ‘LoBind’ microfuge tubes and agitated at 700 RPM/37° C. for 24 hours. Resulting sample centrifuged at 17,000×g/4° C. for 60 min and supernatant discarded to remove left over monomer. Pellet resuspended in half the original volume for future experiments and hereafter referred to as ‘aggregates’. 1 μl of aggregates was added to 1 ml of PBS and SDS was added to a final concentration of 1% (w/v). This was left to incubate on lab bench for 1 h with gentle agitation every 15 minutes. In order to neutralise the SDS effect on ELISA, Triton X-100 added to a final concentration of 3% (v/v) and mixed gently by pipetting to prevent any bubble formation. 200 μl added of this mix was to the first well of an ELISA plate coated with 1 μg/ml S1D12 mAb and blocked with 2% MPBS. Similarly aggregates treated with only SDS or Triton X-100, untreated aggregates, dGAE monomers treated with only SDS or SDS+Titon X-100 were also added to designated wells as controls. All samples were then double diluted across the plate in final volumes of 100 μl. The final column was left with no protein to act as a blank. This was allowed to stand at room temperature for 1 hour followed by the addition of detection scAb-S1G2 at 10 μg/ml. Anti-HuCk HRP labelled secondary antibody was added as described previously and ELISA data generated was represented using the graph below. In addition, limits of detection (LoD) of various core binding antibody pairing for SDS Triton X-100 treated dGAE aggregates were calculated using the above describe ELISA method and substituting capture mAbs and detection scAbs as shown in Table 30.

tau = test: Western blot of mouse brain homogenates (WT, L66+/+, L1+/+); conditions: 20 μg brain homogenate protein, 5-month-old WT, L1+/+ mice
Method: Protein equivalent to 20 μg from each brain extract was separated using 4-20% bis-tris gels and run in 1×MES buffer. […] A clear band is visible in the lanes containing L66^+/+ samples, but no other bands are detectable (WT or L1^+/+). […] Once again, a band having relative mobility of 65 kDa is visible in the L66 sample with no other reactive bands present.
This band most likely corresponds to endogenous mouse tau which is of a similar size. In the L66^+/+ samples, a second band running at approximately 68 kDa is also detected. The presence of numerous other bands indicates proteolytic truncation of tau within brain homogenates.

core region tau = test: S1D12 immunotherapy 6-week repeat-dose mouse study, plasma tau by CA4-S1G2 core-core Simoa assay; format: in vivo; conditions: 30 mg/kg i.p. once per week for six weeks, CA4-S1G2 Simoa
Method: A total of 12 wildtype, 12 Line 1 and 12 Line 66 female mice were used in this study—Line 1 and Line 66 are transgenic mouse models of tauopathy (Melis et al., 2015). Animals were 2 months old at the beginning of the study. Mice of each genotype were injected intraperitoneally (i.p.) with either vehicle or S1D12 mAb (30 mg/kg), once per week, for six consecutive weeks.
Seven days post final dose, cardiac puncture blood sampling was performed. mice were anaesthetised using an overdose of sodium pentobarbital (i.p.) and blood was collected via cardiac puncture through a Plastipak syringe pre-rinsed with heparinised saline (10 U/mL) and transferred into a plastic vial containing lithium heparin anticoagulant. Blood samples were centrifuged to obtain plasma at 2,000×g for 5 min at 6° C.
In order to monitor the ‘treatment effect’ of S1D12 mAb, plasma tau of vehicle control and antibody treated L66^+/+ mice were assessed via a core-core homebrew Simoa® assay to investigate changes in core tau pools in these mice.

Chain of dGA (P10636 614-707): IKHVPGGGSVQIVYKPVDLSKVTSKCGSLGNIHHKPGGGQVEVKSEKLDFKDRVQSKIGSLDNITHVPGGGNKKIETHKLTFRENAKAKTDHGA

B1: S1E12: anti-tau clone, SEQ ID NO: 218 (protein)
scFv: QVQLQESGPSLVKPSQTLSLTCTVSGFSLGSNSVGWVRQAPGKAPEWVAGIDTDGEEGYNPALNSRLSITRDTSKSQVSLSLSSVTSEDTAVYYCGRSYRADGLAYGYVQAIDYWGPGLLVTVSSEGKSSGASGESKVDDRVVRTQPSSVSGSLGQRVSITCSGSFIGISSVGWFQQLPGSGLRTIIVASDGRPSGVPDRFSMSKSGNTATLTISSLQAEDEADYFCGSSDRTQYTGVFGSGTRLTVLG
modifications: S1E12 amino acid sequence
Q: Which ka (dGA) does the source give for B1 here?
A: The ka was 2.99e+06 M⁻¹ s⁻¹.

Q: And the “dissociation rate constant (kd)” value (dGA)?
A: Its value is 0.001627 s⁻¹.

B2: CA9: anti-tau clone, SEQ ID NO: 371 (protein)
scFv: QVQLQESGPSLVKPSQTLSLTCTVSGFSLTSNSVGWVRQAPGKAPEWVAGIDTDGEEGYNPALNSRLSITRDTSKSQVSLSLSSVTSEDTAVYYCGRSYRSDGLAYGYVQAIDYWGPGLLVTVSSEGKSSGASGESKVDDQAVLTQPASVSGSLGQRVSITCSGSFIGISSVGWFQQLPGSGLRTIIVASDGRPSGVPDRFSMSKSGNTATLTISSLQAEDEADYFCGSSDRTQYTGVFGSGTRLTVLG
modifications: CA9 amino acid sequence
Q: With B2 as the molecule, how does the “LoD, S1D12 mAb capture, +SDS Triton dGAE agg.” value (dGAE aggregates) read?
A: Its value is 4 ng/mL.

Q: What about the “LoD, direct immobilisation of dGAE aggregates, +SDS Triton dGAE agg.” value (dGAE aggregates) of the same molecule?
A: The value was 40 ng/mL.

B3: CA12: anti-tau clone, SEQ ID NO: 372 (protein)
scFv: QVQLQGSGPSLVKPSQTLSLTCTVSGFSFDSYYVGWVRQAPGKALEWLGNIYSTGRAFYNPALKSRLSITRDTSKSQVSLSVSSVTIEDTALYYCVRGSYYHGGGNGMVDFFDYWSPGLLVTVSSEGKSSGASGESKVDDQVVRTQPSSVSGSLGQRVSITCSGSSSNVGYGNYVGWFQQVPGSAPKLLIYAATSRASGVPDRFSGSRSGNTATLTIDSLQAEDEADYYCSSYQRGNTGVFGSGTRLTVLG
modifications: CA12 amino acid sequence
Q: With B3 as the molecule, how does the “LoD, S1D12 mAb capture, +SDS Triton dGAE agg.” value (dGAE aggregates) read?
A: Its value is 2 ng/mL.

Q: What about the “LoD, direct immobilisation of dGAE aggregates, +SDS Triton dGAE agg.” value (dGAE aggregates) of the same molecule?
A: The value was 16 ng/mL.

B4: CC7: anti-tau clone, SEQ ID NO: 365 (protein)
scFv: QVQLQESGPSLVKPSQTLSLTCTVSGFSLTSNAVIWVRQAPGKAPEWVALIDVDGDAAYDPALKSRLSITRDTSKSQVSLSLRSVTTEDTAVYYCARDYGSWGYVSDIDYWGPGLLVTVSSEGKSSGASGESKVDDRVVRTQPSSVSGSLGQRVSITCSGSYITGSSVGWFQQVPGSGLKTVIYDNNDRPSGVPDRFSGSKSGDTATLTISSLQAEDEADYYCASYDTSNIGLFGSGTRLTVLG
modifications: CC7 amino acid sequence
Q: How did the Western blot reactivity (tau) turn out when B4 was run?
A: The Western blot reactivity was “specificity for human tau”.

B5: NS2A1: anti-tau clone, SEQ ID NO: 220 (protein)
scFv: QVQLQESGPSLVKPSQTLSLTCTVSGFSLSTNSVGWVRQAPGKAPEWVAGIDTDGEEGFNPVLKSRLSITRDTSKSQVSLSLSNVTSEDTAVYYCGRSYRTDGLAYGYVQAIDYWGPGLLVTISSEGKSSGASGESKVDDQSVLTQPSSVSGSPGQTVSITCSGSYIGSSGVGWFQQLPGSGLRTIIVASDGRPSGVPDGFSMSKSGNTATLTISSLQAEDEADYFCGSSDRTQYTGLFGSGTRLTVLG
modifications: NS2A1 amino acid sequence
Q: How did the ka (dGA) turn out when B5 was run?
A: Its ka is 188000 M⁻¹ s⁻¹.

Q: And the “dissociation rate constant (kd)” value (dGA)?
A: The value was 0.00102 s⁻¹.

B6: S1D12 mAb: S1D12 reformatted as mAb; heavy chain SEQ ID NO: 445, light chain SEQ ID NO: 446 (antibody)
heavy: QVQLQESGPSLVKPSQTLSLTCTVSGFSLNNNAVGWVRQAPGKVPESLVGCSSDGTCYYNSALKSRLDITRDTSKNQISLSLSSVTTDDAAVYYCTRGHYSIYGYDYLGTIDYWGPGLLVTVSSAKTTAPSVYPLAPVCGDTTGSSVTLGCLVKGYFPEPVTLTWNSGSLSSGVHTFPAVLQSDLYTLSSSVTVTSSTWPSQSITCNVAHPASSTKVDKKIEPRGPTIKPCPPCKCPAPNLLGGPSVFIFPPKIKDVLMISLSPIVTCVVVDVSEDDPDVQISWFVNNVEVHTAQTQTHREDYNSTLRVVSALPIQHQDWMSGKEFKCKVNNKDLPAPIERTISKPKGSVRAPQVYVLPPPEEEMTKKQVTLTCMVTDFMPEDIYVEWTNNGKTELNYKNTEPVLDSDGSYFMYSKLRVEKKNWVERNSYSCSVVHEGLHNHHTTKSFSRTPGK
light: QAVLTQPSSVSGSLGQRVSITCSGSSSNVGGGNSVGWYQHLPGSGLKTIIYDTNSRPSGVPDRFSGSRSGNTATLTINSLQAEDEGDYYCVTGDSTTHDDLVGSGTRLTVLGGQPKSSPSVTLFPPSSEELETNKATLVCTITDFYPGVVTVDWKVDGTPVTQGMETTQPSKQSNNKYMASSYLTLTARAWERHSSYSCQVTHEGHTVEKSLSRADCS
modifications: S1D12 mAB Heavy Chain; S1D12 mAB Light Chain
Q: Which results are given for B6?
A: plasma tau, wildtype mice with treatment (core region tau): 3.57 (0.22) ng/ml; plasma tau, L1 mice with S1D12 treatment (core region tau; above upper limit of detection): > 100 ng/mL
